Data: article PMC8938253

Target: rhAChE (recombinant human acetylcholinesterase) (Homo sapiens, UniProt P22303 32-614)
Assay: indirect ELISA

Sequence of rhAChE (recombinant human acetylcholinesterase) (P22303 32-614): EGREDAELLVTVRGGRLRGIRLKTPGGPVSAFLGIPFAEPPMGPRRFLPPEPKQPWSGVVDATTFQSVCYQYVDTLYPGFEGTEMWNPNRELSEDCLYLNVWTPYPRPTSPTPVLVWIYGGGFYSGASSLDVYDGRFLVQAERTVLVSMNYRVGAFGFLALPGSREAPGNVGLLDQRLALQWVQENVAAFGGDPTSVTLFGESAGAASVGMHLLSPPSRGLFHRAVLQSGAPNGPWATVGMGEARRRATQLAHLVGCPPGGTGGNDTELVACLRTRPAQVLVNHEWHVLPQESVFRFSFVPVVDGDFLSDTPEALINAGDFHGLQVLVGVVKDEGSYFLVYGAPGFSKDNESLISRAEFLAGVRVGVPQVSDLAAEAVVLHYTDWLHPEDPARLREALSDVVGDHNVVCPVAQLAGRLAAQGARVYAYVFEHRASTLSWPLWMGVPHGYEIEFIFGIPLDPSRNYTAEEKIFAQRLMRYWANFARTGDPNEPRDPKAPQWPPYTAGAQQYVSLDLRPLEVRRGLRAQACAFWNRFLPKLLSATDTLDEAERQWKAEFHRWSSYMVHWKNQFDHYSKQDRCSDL

B1: Ob2 (ssDNA)
DNA: TAATACGACTCACTATAGCAATGGTACGGTACTTCCCTTCGAAAACACCCTGCCCCTCACACAAAAGTGCACGCTACTTTGCTAA
  Kd: 17.1 ± 9.86 nM
